We go through two molecules from paper PMC5578693, “The role of the C-terminal D0 domain of flagellin in activation of Toll like receptor 5” (PLoS Pathogens, 2017).

Test [1] has as its target soluble hTLR5 ectodomain fused to the Fc region of human IgG1 (human) (UniProt O60602).
For test [2], the target named is T1, soluble hTLR5 ectodomain fused to the Fc region of human IgG1 (human, UniProt O60602 21-639).
T1 construct: human Toll-like receptor 5, ectodomain; UniProtKB O60602; In the functional rows this molecule stands for human TLR5, which was there full length on HEK293 cells (pUNO-hTLR5) or endogenous in A549 cells; also called hTLR5-Fc; source: bought: Invivogen
T1 sequence (O60602 21-639): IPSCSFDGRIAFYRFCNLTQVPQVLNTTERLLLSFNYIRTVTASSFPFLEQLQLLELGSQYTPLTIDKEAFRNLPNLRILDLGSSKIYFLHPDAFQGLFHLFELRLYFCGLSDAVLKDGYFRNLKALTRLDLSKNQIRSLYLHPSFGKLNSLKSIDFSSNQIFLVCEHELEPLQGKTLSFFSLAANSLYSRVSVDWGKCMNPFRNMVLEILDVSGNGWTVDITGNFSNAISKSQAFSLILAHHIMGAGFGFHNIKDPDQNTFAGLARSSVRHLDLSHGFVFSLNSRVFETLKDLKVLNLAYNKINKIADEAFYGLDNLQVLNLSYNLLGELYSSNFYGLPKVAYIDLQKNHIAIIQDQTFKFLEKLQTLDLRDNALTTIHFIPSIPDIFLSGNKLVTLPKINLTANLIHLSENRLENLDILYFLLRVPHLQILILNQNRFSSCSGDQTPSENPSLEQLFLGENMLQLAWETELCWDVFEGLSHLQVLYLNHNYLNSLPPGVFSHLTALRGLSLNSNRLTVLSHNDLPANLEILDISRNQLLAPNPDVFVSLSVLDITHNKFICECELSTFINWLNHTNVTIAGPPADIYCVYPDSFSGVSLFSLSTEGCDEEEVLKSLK
Put plainly: co-IP; 10 ug hTLR5-Fc bound to protein A-coupled Dynabeads (control: beads with water only); 20 ug wt or mutant flagellin added, 1 h at room temperature; washed 3 times with 1 x PBS, 0.02% Tween 20, pH 7.5; eluted in 0.1% SDS at 95 C; flagellin detected by Western blot with anti-His antibodies. To be noted: both partners purified.

Chain of soluble hTLR5 ectodomain fused to the Fc region of human IgG1 (human) (O60602 21-639): as above

Regarding “dimSFΔD0, two SFΔD0 domains tethered into a single polypeptide chain by a 27 amino acid peptide linker”, the TLR5 activation: NF-kB reporter in A549 cells (SEAP) and in hTLR5-transfected HEK293 cells (luciferase, 0-1000 ng/ml); lowest active concentration in test [1] was 50 ng/mL.

B1: S. typhimurium flagellin FliC, wild type (natural protein, UniProt P06179 1-495, looked up)
chain: MAQVINTNSLSLLTQNNLNKSQSALGTAIERLSSGLRINSAKDDAAGQAIANRFTANIKGLTQASRNANDGISIAQTTEGALNEINNNLQRVRELAVQSANSTNSQSDLDSIQAEITQRLNEIDRVSGQTQFNGVKVLAQDNTLTIQVGANDGETIDIDLKQINSQTLGLDTLNVQQKYKVSDTAATVTGYADTTIALDNSTFKASATGLGGTDQKIDGDLKFDDTTGKYYAKVTVTGGTGKDGYYEVSVDKTNGEVTLAGGATSPLTGGLPATATEDVKNVQVANADLTEAKAALTAAGVTGTASVVKMSYTDNNGKTIDGGLAVKVGDDYYSATQNKDGSISINTTKYTADDGTSKTALNKLGGADGKTEVVSIGGKTYAASKAEGHNFKAQPDLAEAAATTTENPLQKIDAALAQVDTLRSDLGAVQNRFNSAITNLGNTVNNLTSARSRIEDSDYATEVSNMSRAQILQQAGTSVLAQANQVPQNVLSLLR
notes: flagellin FliC of S. typhimurium (SaTy), UniProt P06179; cloned into pET19b; also called SaTy; wild-type flagellin; source: E. coli BL21 (DE3) pLysS, purified (Ni-NTA); not shown: His10, N-terminal, kept
As for B1, in test [2], the binding result is on record as “binds”.
